From paper PMC4273445 (eLife, 2014) come the findings set out here.

What all share (assay): SPR
For orientation: SPR reads the build-up and loss of mass on a sensor chip optically.

In experiment [1] the target is fHbp V2.21 Glu (at V1 Asp262) to Ala (N. meningitidis).
Experiment [2] has as its target fHbp V2.21 Leu (at V1 Ile199) to Ala (N. meningitidis).
The target in experiment [3] is fHbp V2.21 Phe (at V1 Phe194) to Ala (N. meningitidis).
Experiment [4] has as its target fHbp V3.28 Thr (at V1 Ser286) to Ala (N. meningitidis).
The target in experiment [5] is fHbp V1.1 Glu157 to Ala (N. meningitidis).
Experiment [6] addresses fHbp V2.21 Val (at V1 Ile196) to Ala (N. meningitidis).

Broadly, the Kd is the free concentration of one partner at which half of the binding sites on the other are occupied at equilibrium, for simple one-to-one binding. Lower therefore signals higher affinity.

CFH67, CCP domains 6 and 7 of complement factor H, sequence (P08603 321-443): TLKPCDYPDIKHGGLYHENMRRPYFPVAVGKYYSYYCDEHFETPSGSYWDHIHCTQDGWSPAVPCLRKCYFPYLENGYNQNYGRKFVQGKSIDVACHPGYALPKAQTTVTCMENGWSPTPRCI

Consider “CFHR3_(12), the first two (N-terminal) CCP domains of complement factor H-related 3 (from UniProt Q02985 19-330) (domain or fragment)”, for which the Kd in experiment [1] worked out at 5.43 nM; in experiment [2] it was 11.2 nM; in experiment [3] it was 1.08 nM; in experiment [4], 33.1 nM.

In the case of “CFH67, CCP domains 6 and 7 of complement factor H (from UniProt P08603 321-443) (domain or fragment)”, the Kd in experiment [5] is 20.7 nM; in experiment [6], 40 nM.
